Data taken from the RNAGym collection of RNA variant scans (doi:10.1073/pnas.2313332121).

B1: TPR t1 (parent)
chain: GACCAAUCUGCCCUCAGAGCUCGAGAACAUCUUCGGAUGCAGAGGAGGCAGGCUUCGGUGGCGCGAUAGCGCCAACGUCCUCAACCUCCAAUGCAUCCCACCACAUGAUGAUGCCUGAAGAGCCUUGGUUUUUUG

Variants of: B1
Assay: polymerase ribozyme fitness, log enrichment relative to wild type (log ratio); higher = more active; in vitro selection for triplet polymerase activity
Procedure, shortened: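 A heterodimeric triplet polymerase ribozyme had each of its subunits mutagenized by PCR into a library, which was transcribed. One round of in vitro selection, done in triplicate, annealed each library with a biotinylated primer, its partner subunit and triplets, then incubated it frozen at −7 °C before gel excision of extended constructs, streptavidin-bead capture and RT-PCR. Fitness is the logarithm of genotype enrichment relative to wild-type enrichment, based on Illumina sequencing of inputs and outputs and inverse-variance-weighted replicate averages. A base-2 logarithm is used, and genotypes were kept only with ≥10 input reads and ≥1 read per output.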

Row | Variant | polymerase ribozyme fitness (log ratio)
1 | GACCAAUCUGCCCUCAGAGCUCGAGAAGAUCUUCGGAUGCAGAGGAGGCAGGCUUCGGAGGCGCGAUAGCGCCAACGUCCUCAACCUCCAAUGCAUCCCACCAUAUGAUGAUCCCUGAAGAGCCUUGGUUUUUUG | -5
2 | GACCAAUCUGCCCUCAGAGCUCGAGAAGAUCUACGGAUGCAGAGGAGGCAGGAUUCGGUGGCGCGAUAGCGCCAACGUCCUCAACCUCCAAUGCAUCCCACCACAUGAUGAUGUCUGAAGAGCCUUGUUUUUAUG | -7.29
3 | GACCAAUCUGCCCUCAGAGCUCGAGAAGAUCUUCGGAUGCAGAGGAGGCAGGCUUCGGUGGCGCGAUAGCGCCAACGUCCUCAACCUCCAAUGCAUCCCACCACAUGAUGAUGCCUGAACAGCCUUGGUUUUUUG | -1.89
4 | GACCAAUCUGCCCUCAGAGCUCGAGAAUGUCUUCGGAUGCAGAGGAGGCAGGCUUCGGUGGCGCGAUAGCGUCAACGUCCUCAACCUCCAAUGCAUCCCACCACAUGAUGAAGCCUGAAGAGCUUUGGUUUUUUG | -7.83
5 | GACCAAUCUGCCCUCAGAGCUCGAGAAUAUCUUCGGAUGCAGAGGAGGCAGGCUUCGGUGGCGCGAUAGCGCCAACGUCCUCAACCUCCAAUGCAUCCCACCACCUGAUGAUGCCUGAAGAGCCUUGGUUUUUUG | -4.77
6 | GACCAAUCUGCCCUCAGAGCUCGAGAAUAUCUUCGGAUGCAGAGGAGGCAGGGUUCGCUCGCGCGAUAGCGCCAACGUCCUCAACCUCCAAUGCAUCCCACCACAUGAUGAUGCCUGAAGAGCCUUGGUUUUUUG | -3.2
7 | GACCAAUCUGCCCUCAGAGCUCGAGAAGAUCGUCGGAUGCAGAGGAGGCAGGCUUCGGUGGAGCGAUAGCGCCAACGUCCUCAACCUCCAAUGCAUCCCACCACAUGAUGAUGCCUGAAGCGCCUUGGUUUUUUG | -6.19
8 | GACCAAUCUGCCCUCAGAGCUCGAGAAUAUCUUCGGAUGAAGAGGAGGCAGGCUUCGGUGGCGCGAUAGCUCCAACGUCCUCAACCUCCAAUGCAUCCCACCACAUGAUGACGCCUGAAGAGCCUAGGUUUUUUG | -3.58
9 | GACCAAUCUGCCCUCAGAGCUCGAGAAUAUCUUCGGUUGCAGAUGAGGCAGGCUUCGGUGGCGCGAUAGCGCCAACGUCCUCAACCUCCCAUGCAUCCCACCACAUGAUGAUGCCUGAAGAGCCUUGGUUUUUUG | -3.61
10 | GACCAAUCUGCCCUCAGAGCUCGAGAAUUUCUUCGGAUGCAGAGCAGGCAGGCUUCGGUGACGCGAUAGCGCCAACGUCCUCAACCUCCAAUGCAUCCCACCACAUGAUGAUGCCUGAAGAGCCUUGGUUUUUUG | -3.76
11 | GACCAAUCUGCCCUCAGAGCUCGAGAAUAUCUUCGGAUGCAGUGGAGUCAGCCUUCGGUGGCGCGAUAGCGCCAACGUCCUCAACAUCCAAUGCAUCCCAACACAUGAUGAUGCCUCAAGAGCUUUGGUUUUUUG | -7.22
12 | GACCAAUCUGCCCUCAGAGCUCGAGAAUAUCUUCGGAUGCAGAGGAGGCAGGCUUCGGUGGCGCGAUAGCGCCAACGUCCUCUACGUCCAAUGCAUCCCACCACAUGAUGAUGCCUGAAGAGGCUUGGUUUUUUG | -1.55
13 | GACCAAUCUGCCCUCAGAGCUCGAGAAGAUCUUCGGAUGCAGAGGAGGCAGGCUUCGGUGGCGCGAUAGCGCCAACGUCCUCAACCUCCAACGCAUCCCACCACAUGAUGAUGCCUGAAGAGACUUGGUUUUUUG | -3.8
14 | GACCAAUCUGCCCUCAGAGCUCGAGAAGAUCUUCGGAUGCAGAGGAGGCAGGCUUCGGUGGCGCGAUAGCGCCAACUACCUUAACCUCCAAUGCAUCCCACCACAUGAUGAUGCCUGAAGAGCCUUGGUUUUUUG | -3.54
15 | GACCAAUCUGCCCUCAGAGCUCGAGAAGAUCUUCGGAUGCAGAGGAGGCAGGCUUCGGUGGCGCGAUAGCGCCAACGUCCUCAACCUCCAAUGCAUCCCACCACAUGAUAAUGCCUGAAGAGCCUUGGUUUUUUG | -1.49
16 | GACCAAUCUGCCCUCAGAGCUCGAGAAUAUCUUCGGAUGCAGGGGAGGCAGGCUUCGGUGGCGCGAUAGCGGCAACGUCCUCAACCUCCAAUGCAUCCCACCACAUGAUGAGGCCUGAAGAGCCUUGGUUUUUUG | -5.26
17 | GACCAAUCUGCCCUCAGAGCUCGAGAAGAUCUUCGGAUGCAGAGGAGGCAGGCUUCGGUGGCGCGAUAACGCCAACGUCCUCAACCUCCAAUGCAUCCCACCACAUGAUGAUGCCUGAAGCGCCUUGGUUUUUUG | -5.9
18 | GACCAAUCUGCCCUCAGAGCUCGAGAAUAUCUUCGGAUGCAGAGGUGGCAGGCUUCGGUGGCGCGAUAGCGCCAACGUCCUCAACCUCCAAUGGAUCCCACCACAUGAUGAUGCCUGAAGAGCCUUGGUUUUUUG | -4.44
19 | GACCAAUCUGCCCUCAGAGCUCGAGAAUAUCUUCGGAUGCAGUGGAGGCAGGCUUCGGUGGCGCGAUAGCGCCAACGUCCUCAACCUCGAAUGCAUCCCACCACAUGAUGAUGCCUGAAGAGCCUUGGUUUUUUG | -5.07
20 | GACCAAUCUGCCCUCAGAGCUCGAGAAGAUCUUCGGAUGCAGAGGAGGCAGGCUUCGGUGGCUCGAUAGGGCCAACGUCCUCAACCUACAAUGCAUCCCACCACAAGAUGAUGCCUGAAGAGCCGUGCUUUUUUG | -4.76
21 | GACCAAUCUGCCCUCAGAGCUCGAGAAUAUCUUCGGAUGAAGAGGAGGCAGGCUUCGGUGGCGCGAUAGCGCCAACGUCCUCAACCUCCAAUGCAUCCCACCACAUGAUGAUGCCUGAAGAGCCUUGGUUUUUUG | -2.12

Row | Variant | polymerase ribozyme fitness (log ratio)
22 | GACCAAUCUGCCCUCAGAGCUCGAGAAGAUCCUCGGAUGCAGAGGAGGCAUGCUUCGGUGGCGCGAUAGCGCCAACGUGCUCAACCUCCAAUGCAUCCCACCACAUGAUGAUGCCUGAAGAGCCUUGGUUUUUUG | -5.29
23 | GACCAAUCUGCCCUCAGAGCUCGAGAAUAUCUUCGGAUGCAGAGGAGGGAGGCUUCGGUGGCGCGAUAGCGCCAACGUCCUCAACCUCCAAUGCAUCCCACCACAUGAUGAUGCCUGAAGAGCCUUGGUUUUUUG | -3.16
24 | GACCAAUCUGCCCUCAGAGCUCGAGAAUAUCUUCGGAUGCAGAGGUGGCAGGCUUCGGUGGCGCGAUAGCGCCUACGUCCUCAACCUCCAAUGCAUCCCACCACAUGAUGAUGCCUGAAGAGCCUUGGUUUUUUG | -3.5
25 | GACCAAUCUGCCCUCAGAGCUCGAGAAUAUCUUCGGAUGCAGUGGAGGCAGGCUUCGGGGGCGCGAUAGCGCUAACGUCCUCAACCUCCAAUGCAUCCCACCACAUGAUGAUGCCUGAAGAGCCUUGGUUUUUUG | -6.04
26 | GACCAAUCUGCCCUCAGAGCUCGAGAAUAUCUUAGGAUGCAGAGGAGGCAGGGUUCGGUGGCGCGAUAGCGCCAACGUCCUCAACCUCCAAUGCAUCCCACCACAUGAUGAUGCCUGAAGAGCAUUGGUUUUUUG | -4.41
27 | GACCAAUCUGCCCUCAGAGCUCGAGAAGAUCUUCGGAUGCAGAGGAGGCAGGCUUCGGUGGCGCGAUAGCGCCAACGUCCACAACCCCCAAUGCAUCCCACCACAUGAUGAUGCCUGAAGAGCCUUGGUUUUUUG | -2.99
28 | GACCAAUCUGCCCUCAGAGCUCGAGAAGAUCUUCGGAUGCAGAGGAGGCAGGCCUCGGUGGCGCGAUGGCGCCAACGUCCUCAACCUCCAAUGCAUCCCACCACAUGAUUAUGCCUGAAGAGCCUUGGUUUUUUG | -3.67
29 | GACCAAUCUGCCCUCAGAGCUCGAGAAGAUCUUCGGAUGCAGAGGAGGCAGGCUUCGGAGGCGCGAUAGCGCCAACGUCCUCAACCUCCAAUGCAUCCCACCACAUGAUGAUGCCUGAAGAGCCUUGGUUUUUUG | -3.18
30 | GACCAAUCUGCCCUCAGAGCUCGAGAAUAUCUUCGGAUGCAGCGGAGGCAGGCUUCGGUGGCGCGAUAGCGCCAACGUCCUCAACCUCCAAUGCAUCCCACCACAUGAUGAUGCCUGAAGAGCCUUGGUUUUUUG | -4.69
31 | GACCAAUCUGCCCUCAGAGCUCGAGAAGAUCUUCGGAUGCAGAGGAGGCAGGCUUCGGUGGCGCGAUAGCGCCAACGUCCUCAACCUCCAAUUCAUCCCACCACAUGAUGAUGCCUGAAGAGCCUUGGUUUUUUG | -3.89
32 | GACCAAUCUGCCCUCAGAGCUCGAGAAGAUCUUCGGAUGCAGAGGAGGCAGGCUUCGGUGGCGCGAUAGCGCCAACGUCCUCAACCUCCAAUUCAUCCCACCACAUGAUGAUGCCUGAGGAGCCUUGGCUUUUUG | -4.2
33 | GACCAAUCUGCCCUCAGAGCUCGAGAAUAUCUUCGGAUGCAGAGGAGGUAGGCUUCGGUUGCGCGAUAGCGCCAGCGUCCUCAACCUCCAAUGCAUCCCACCACAUGAUGAUGCCUGAAGAGCCUUGGUUUUUUG | -3.76
34 | GACCAAUCUGCCCUCAGAGCUCGAGAAUAUCUUCGGAUGCAGAGGAGGCAGGCUUCGGUGGCGCGAUAGCGCCAACGUCCUCAACCUCCUAUGCAUCCCACCACAUGAUGUUGCCUGAAGAGCCUUGGUUUUUUG | -5.21
35 | GACCAAUCUGCCCUCAGAGCUCGAGAAUAUCUUCGGAUGCAGAGGAGGCAGGCUUCGGUGGCGCGAUAGCGCCAACGUCCUCAACCUCCAAUGCAUCCCACCACAUGAUGAUGCCUGAAGUGCCUUGGUUUUUUG | 0.361
36 | GACCAAUCUGCCCUCAGAGCUCGAGAAGAUCUUCGGACGCAGAGGAGGCAGGCUUCGGUGGCGCGAUAGCGCCAACCUCCUCAUCCUCCAACGCAUCCCACCACAUGAUGAUUCCUGAAGAGCCUUGGGUUUUUG | -5.83
37 | GACCAAUCUGCCCUCAGAGCUCGAGAAGAUCCUCGGAUGCAGAGGAGGCAGGCUUCGGUGGCGCGAUACCGCCAACGCCCUCAACGUCCAAUGCAUCCCACCACAUGAUGAUGCCUUAAGAGUCUUGGUUUUUUG | -7.36
38 | GACCAAUCUGCCCUCAGAGCUCGAGAAUAUCUUCGGUUGCAGAGGAGGCAGGCUUCGGUGGCGCGAUAGCGCCAACGUCCUCAACCUCCAAUGCAUCCCACCACAUGAUGAUGCCUGAAGAGCCUUGGUUUUUUG | -2.36
39 | GACCAAUCUGCCCUCAGAGCUCGAGAAGAUCUUCGGAUGCAGAGGAGGCAGGCUUCGGAGGCGCGAUAGCGCCAACGUCCUCAACCUCGAAUGCAUCCCACCGAAUGAGGAUGCCUGAAGAGGCUUGGUUUUAUG | -5.51
40 | GACCAAUCUGCCCUCAGAGCUCGAGAAGAUCUUCGGAUGCAGAGGAGGCAGGCUUCGGUGGCGCGAUAUCGCCAACGUCCUCAACCUCCAAUGCAUCCCACCACAUGAUGAUGCCUGAAGAGCCUUGGUUUUUUG | -0.552
41 | GACCAAUCUGCCCUCAGAGCUCGAGAAUAUCUUCGGAUGCAGAGGAGGCAGGCUUCGGUGGCGCGAUAGCGCCAACGUCCUCAGCCUCCCAUGCAUCCCACCACAUGAUGAUCCCUGAAGAGCCUUGGUUUUUUG | -5.73
42 | GACCAAUCUGCCCUCAGAGCUCGAGAAGAUCCUCGGAUGCAGAGGAGGCAGGCUUCGGUGGCGCGAUAGCGCCAACGUCCUCAACCUCCAAUGCAUCCCAACACAUGAUGAUGCCUGAAGAGCCUUGGUUUUUUG | -3.79
